These results are taken from paper PMC7018516, “Structure of the AAA protein Msp1 reveals mechanism of mislocalized membrane protein extraction” (eLife, 2020).

Assay [1] addresses T1, Δ30-Msp1 (Thermochaetoides thermophila, UniProt G0S654).
T1 construct: gene CTHT_0034230; cytosolic domain lacking the 30-residue N-terminal membrane anchor; GST tag removed by thrombin; expressed in E. coli BL21(DE3); homohexamer with trapped endogenous E. coli peptide in the pore
The assay is described as follows: cryo-EM structure of complex. The note with it: 5 mM ADP•BeFx, 5 mM MgCl2, pH 7.5; ADP without BeFx in subunit M5; nucleotide-binding pocket; substrate peptide in pore.

In assay [2] the target is T2, Δ30-Msp1 (Thermochaetoides thermophila, UniProt G0S654, E214Q).
T2 construct: gene CTHT_0034230; cytosolic domain lacking the 30-residue N-terminal membrane anchor; GST tag removed by thrombin; expressed in E. coli BL21(DE3); homohexamer with trapped endogenous E. coli peptide in the pore
Description: cryo-EM structure of complex. The note with it: 2 mM ATP, 2 mM MgCl2, pH 7.5; subunits M1-M5; nucleotide-binding pocket; Walker B mutant, hydrolysis inactive.

The target of assay [3] is Δ30-Msp1 (cytosolic domain of Chaetomium thermophilum Msp1 lacking its 30 amino acid N-terminal membrane anchor) (Chaetomium thermophilum). Description: SEC; gel filtration of the purified protein in Msp1 lysis buffer (25 mM HEPES pH 7.5, 300 mM NaCl, 1 mM DTT, 2 mM MgCl2); self-association.
Assay [4] has the same target. Description: cryo-EM structure; Δ30-Msp1 at 50–100 μM with 5 mM MgCl2 and 5 mM ADP•BeFx, 25 mM HEPES pH 7.5, 300 mM NaCl, 1 mM DTT, 2.5% glycerol; subunit with subunit; open and closed conformations.
The target of assay [5] is Δ30-Msp1^E214Q (Walker B mutant of the cytosolic domain of Chaetomium thermophilum Msp1) (Chaetomium thermophilum). The assay is described as follows: SEC; gel filtration of the purified protein in Msp1 lysis buffer (25 mM HEPES pH 7.5, 300 mM NaCl, 1 mM DTT, 2 mM MgCl2); self-association.
Assay [6] has the same target. Description: cryo-EM structure; Δ30-Msp1^E214Q at 50–100 μM with 2 mM ATP and 2 mM MgCl2, 25 mM HEPES pH 7.5, 300 mM NaCl, 1 mM DTT, 2.5% glycerol; subunit with subunit; hexamer and larger oligomer classes.
The target is the same in assay [7]. The description is as above. The source holds these as a separate data set.

T2 sequence (G0S654 entry or part of it E214Q): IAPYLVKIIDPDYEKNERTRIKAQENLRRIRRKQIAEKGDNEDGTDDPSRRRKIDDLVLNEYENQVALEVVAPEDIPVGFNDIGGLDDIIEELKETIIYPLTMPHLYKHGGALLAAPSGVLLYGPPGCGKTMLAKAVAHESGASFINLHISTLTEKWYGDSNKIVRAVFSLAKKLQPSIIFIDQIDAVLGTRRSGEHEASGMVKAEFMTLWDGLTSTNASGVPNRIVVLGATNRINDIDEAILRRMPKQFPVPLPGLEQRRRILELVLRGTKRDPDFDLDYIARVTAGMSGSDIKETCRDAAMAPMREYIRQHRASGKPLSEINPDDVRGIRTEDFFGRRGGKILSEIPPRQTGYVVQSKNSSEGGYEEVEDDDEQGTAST
T1 sequence (G0S654 entry or part of it, stated change not applied): as the sequence (G0S654 entry or part of it E214Q) above, with Q184E counted along it

Take `Nc1ncnc2c1ncn2[C@@H]1O[C@H](COP(=O)(O)OP(=O)(O)O)[C@@H](O)[C@H]1O` [ADP]: the “cryo-EM structure of complex” value in assay [1] is on record as “M1 -M4 were bound to ADP•BeFx (mimicking the ATP state), M5 was bound to ADP”. As for `Nc1ncnc2c1ncn2[C@@H]1O[C@H](COP(=O)(O)OP(=O)(O)OP(=O)(O)O)[C@@H](O)[C@H]1O` [ATP], the “cryo-EM structure of complex” value in assay [2] is recorded as “In Δ30-Msp1^E214Q, M1-M5 display clear density for ATP”. Regarding “Δ30-Msp1 (cytosolic domain of Chaetomium thermophilum Msp1 lacking its 30 amino acid N-terminal membrane anchor) (enzyme)”, the stoichiometry N in assay [3] and in assay [4] was 6 each time.

For the molecule “Δ30-Msp1^E214Q (Walker B mutant of the cytosolic domain of Chaetomium thermophilum Msp1) (enzyme)”, the values for the stoichiometry N in assay [5], in assay [6] and in assay [7] were more than 6, 6 and 7, respectively.
